{"source": "patent US12617816B2", "about": "(priority 2019, dated 2026)", "key": {"in vivo": {"experiment": "in vivo", "conditions": "mouse, iv"}, "MOR [1]": {"test_system": "MOR", "set-up": "species or system mice", "conditions": "in vivo"}, "human mu-opioid receptor [2]": {"target": "T1, human mu-opioid receptor (Homo sapiens, UniProt P35372)", "T1 construct": "host or cells: CHO-K1", "T1 sequence (P35372 whole entry)": "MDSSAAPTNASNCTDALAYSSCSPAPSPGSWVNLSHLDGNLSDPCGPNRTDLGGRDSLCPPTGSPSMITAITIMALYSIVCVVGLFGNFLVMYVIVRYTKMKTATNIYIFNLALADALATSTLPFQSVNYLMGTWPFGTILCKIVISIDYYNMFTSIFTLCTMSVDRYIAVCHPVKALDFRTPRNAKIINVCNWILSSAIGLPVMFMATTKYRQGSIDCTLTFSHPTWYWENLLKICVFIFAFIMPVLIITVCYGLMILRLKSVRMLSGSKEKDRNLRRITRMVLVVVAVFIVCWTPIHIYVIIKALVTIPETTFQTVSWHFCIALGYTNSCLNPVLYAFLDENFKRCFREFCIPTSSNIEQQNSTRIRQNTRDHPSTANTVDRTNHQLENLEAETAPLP", "format": "cell-based"}, "MOR [3]": {"target": "MOR (Homo sapiens, UniProt P35372)", "sequence (P35372 whole entry)": "as above"}, "human mu-opioid receptor [4]": {"target": "T1, human mu-opioid receptor", "experiment": "cell-based", "format": "binding"}, "[5]": {"conditions": "mouse, in vivo"}, "[6]": {"conditions": "in vivo; cited from earlier work"}}, "note": "pIC50, pKi: −log10 of the molar value. Where two headings read alike, the source gives them in different places."}
{"molecule": "C[C@@H](NC(=O)[C@@H](N)Cc1ccc(O)cc1)C(=O)N[C@@H](Cc1ccccc1)C(=O)NCC(=O)N[C@@H](Cc1ccc(O)cc1)C(=O)N1CCC[C@H]1C(=O)N[C@@H](CCCCN)C(=O)N[C@@H](CSC1CC(=O)N(CCNC(=O)CCCCC[N+]2=C(/C=C/C3=C(Oc4ccc(S(=O)(=O)O)cc4)C(=C/C=C4/N(CCCCS(=O)(=O)O)c5ccc(S(=O)(=O)O)cc5C4(C)C)/CCC3)C(C)(C)c3cc(S(=O)(=O)[O-])ccc32)C1=O)C(N)=O", "note": "(stereo partly drawn) [DRM-800, [Lys7]dermorphin-IRDye800CW]", "values": [{"measurement": "half-life", "setting": "in vivo; distribution half-life (biexponential)", "value": 3.3, "unit": "min"}, {"measurement": "half-life", "setting": "in vivo; elimination (β) half-life (biexponential)", "value": 70.8, "unit": "min"}, {"measurement": "half-life", "setting": "in vivo; plasma half-life (time in which the concentration of dye is 50% of initial)", "value": 7.95, "unit": "min"}, {"measurement": "ratio of enhancement, wildtype to knockout mouse", "setting": "MOR [1]", "value": 3.1, "unit": "×"}, {"measurement": "enhancement in wildtype compared to knockout mice", "setting": "MOR [1]; mouse", "value": "higher enhancement in the wildtype mice compared to knockout mice"}, {"measurement": "displacement of retained DRM-800 by naloxone", "setting": "human mu-opioid receptor [2]", "value": "cannot be displaced even at high concentrations of naloxone"}, {"measurement": "Binding potential (BP)", "setting": "MOR [3]", "value": "approximately 10"}, {"measurement": "pIC50", "setting": "human mu-opioid receptor [4]", "value": 8.46}, {"measurement": "pKi", "setting": "human mu-opioid receptor [4]", "value": 9.19}, {"measurement": "tolerability of intravenous injection", "setting": "[5]", "value": "well-tolerated"}, {"measurement": "distribution half-life (biexponential)", "setting": "[5]; iv", "value": "6.2 (4.9-8.6) min"}, {"measurement": "elimination (β) half-life (biexponential)", "setting": "[5]; iv", "value": "45 (33-68) min"}, {"measurement": "persistence in plasma", "setting": "[5]; iv", "value": "at least one hour"}, {"measurement": "plasma half-life (time in which the concentration of dye is 50% of initial)", "setting": "[5]; iv", "value": 12.6, "unit": "min"}]}
{"molecule": "C=CCN1CC[C@]23c4c5ccc(O)c4O[C@H]2C(=O)CC[C@@]3(O)[C@H]1C5", "note": "[naloxone]", "values": [{"measurement": "half-life", "setting": "[6]", "value": "60 to 80", "unit": "min"}]}
